Reference: US20240425575A1 (SOTER BIOPHARMA PTE, published 2024)
Residue numbers refer to the chain shown, from its start.

B1: B3-C11 (VHH)
VHH: EVQLVESGGGLVQAGGSLRLSCFVSGSTFSASLMGWYRQAPGKERELVAGISNIGNTVYADSAKGRFTISRDGAKNTVHLQMNALKPEDTAVYYCYATVPRAAWGQGTQVTVSS
notes: Tested as E. coli TG1 culture supernatant (phagemid pComb3XSS); also called anti-ANG2 heavy-chain single-domain antibody B3-C11
B2: B2-A6 (VHH)
VHH: B1 VHH with E1Q, V2L
notes: Tested as E. coli TG1 culture supernatant (phagemid pComb3XSS); also called anti-ANG2 heavy-chain single-domain antibody B2-A6
B3: B1-G8 (VHH)
VHH: QVQLVESGGGLVQTGDSLRLSCVAPGISFSNRGMAWYRQAPGKQRELVAAIDSAGSQRYAGSVKDRFTISRDNAKNTVFLQMNSLKPEDTAVYYCNQPRFNLWGQGTQVTVSS
notes: Tested as E. coli TG1 culture supernatant (phagemid pComb3XSS); also called anti-ANG2 heavy-chain single-domain antibody B1-G8
B4: B4-C11 (VHH)
VHH: QVQLVESGGGLVQAGGSLRLSCAASGSTFSNVVAGWYRQAPGKQRELVAGISNIGDTRYADSVKGRFTISRDNAKKAVYLQMNSLKPEDTAVYYCYAKYWARDYWGQGTQVTVSS
notes: Tested as E. coli TG1 culture supernatant (phagemid pComb3XSS); also called anti-ANG2 heavy-chain single-domain antibody B4-C11
B5: B3-H7 (VHH)
VHH: B4 VHH with Q1E, L4V, F29A, S30I, V32S, A77T, P87S
notes: Tested as E. coli TG1 culture supernatant (phagemid pComb3XSS); also called anti-ANG2 heavy-chain single-domain antibody B3-H7
B6: B1-H9 (VHH)
VHH: B4 VHH with Q1E, G10D, N31S, V32T, V33I, A77T
notes: Tested as E. coli TG1 culture supernatant (phagemid pComb3XSS); also called anti-ANG2 heavy-chain single-domain antibody B1-H9
B7: B4-D3 (VHH)
VHH: QLQLVESGGGLVQPGGSLRLSCVASGASGISFSNRGMAWYRQAPGKQRELVAAIDSAGSPAYAGSVKGRFTISRDNAKNTVFLQMNSLKPEDTAVYYCNQPRFNLWGLGTQVTVSS
notes: Tested as E. coli TG1 culture supernatant; also called anti-ANG2 heavy-chain single-domain antibody B4-D3
B8: B2-F10 (VHH)
VHH: QVQLVESGGGLVQAGGSLRLSCGASGSAVSITLMAWYRQAPGKQRELVAGISNIGDTNYVDSVKDRFTISRINAKNAMYLQMNSLKPEDTAVYYCFAQDWGGHHYWGQGTQVTVSS
notes: Tested as E. coli TG1 culture supernatant (phagemid pComb3XSS); also called anti-ANG2 heavy-chain single-domain antibody B2-F10
B9: B1-G3 (VHH)
VHH: EVQVVESGGGLVQPGGSLRLSCVASMPSGISFSNRGMAWYRQAPGKQRELVAAIDSAGSTRYQDSVKGRFTISRDNAKNTVFLQMNSLKPEDTAVYYCNQPAFKAWGQGTQVTVSS
notes: Tested as E. coli TG1 culture supernatant (phagemid pComb3XSS); also called anti-ANG2 heavy-chain single-domain antibody B1-G3
B10: B2-E2 (VHH)
VHH: EVQLVESGGGLVQPGESLRLSCVASGFPSGFTFSDYQMYWYRQAPGKERELVAIISNDGLRKTYADSVKGRFTISRDNAKNTMFLQMNSLKPEDTAVYVCNVRRANRDDWGQGTQVTVSS
notes: Tested as E. coli TG1 culture supernatant (phagemid pComb3XSS); also called anti-ANG2 heavy-chain single-domain antibody B2-E2

biological target: T1, recombinant human ANG2 protein corresponding to Lys275-Phe496 of human ANG2 (human, UniProt O15123 275-496); assay: ELISA, hANG2 coated, E. coli supernatant, anti-VHH-HRP
T1 construct: also called hANG2
T1 sequence: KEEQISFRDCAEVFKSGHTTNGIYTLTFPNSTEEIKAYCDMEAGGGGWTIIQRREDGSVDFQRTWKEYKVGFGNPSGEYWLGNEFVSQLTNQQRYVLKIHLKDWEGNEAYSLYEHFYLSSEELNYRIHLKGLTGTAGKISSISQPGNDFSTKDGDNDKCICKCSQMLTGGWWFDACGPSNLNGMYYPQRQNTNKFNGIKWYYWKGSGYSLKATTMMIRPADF
Protocol: Single colonies of TG1 host strains of the obtained ten strains of heavy-chain single-domain antibodies were selected, inoculated and cultured overnight. On the next day, the overnight strains were transferred, amplified, induced by 0.5 mM IPTG and cultured in a shaker overnight at 37° C. On the next day, centrifugation was performed to collect supernatant for detection.
An ELISA plate was separately coated with an hANG2 protein solution and BSA in […] and placed overnight at 4° C. Supernatant was discarded, and 300 μL blocking solution (PBS containing 3% BSA) was added to each well and blocked for 2 h at 37° C. Supernatant collected after centrifugation was added to wells of the ELISA plate in 200 μL per well and subjected to standing incubation for 2 h at room temperature, and supernatant was discarded. Washing was performed with PBST (PBS contained 0.1% Tween 20) in 200 μL/well three times. Diluted HRP-labeled anti-VHH secondary antibodies (Genscript, A01861) were added in a volume of 100 μL/well and incubated for 1 h at room temperature, wherein the secondary antibodies were used after dilution according to 1:10000 with a diluent of PBS containing 1% BSA. Washing was performed with PBST in 200 μL/well five times. A TMB color developing solution (BD, 55214) was added in 100 μL/well, and color developing was performed for 8 min at 37° C.2M HCl stopping solution was added in 100 μL/well. After the stopping solution was added, values at 450 nm were read with a microplate reader within 30 minutes.

Binder	OD Value Obtained after Binding to hANG2
B1	1.63 OD 450 nm
B2	2.39 OD 450 nm
B3	2.02 OD 450 nm
B4	1.58 OD 450 nm
B5	1.82 OD 450 nm
B6	1.5 OD 450 nm
B7	1.68 OD 450 nm
B8	2.06 OD 450 nm
B9	1.57 OD 450 nm
B10	1.96 OD 450 nm
